Laboratory results reported in paper PMC6101608 (Nucleic Acids Research, 2018).

Tests used:
[1] = system: HpoR (Mycobacterium smegmatis mc2 155); test: EMSA
[2] = system: LtmA (Mycobacterium smegmatis mc2 155); test: EMSA
HpoR = target: T1, HpoR (M. smegmatis mc2 155, UniProt A0R4J9 1-199); test: SPR
T1 sequence: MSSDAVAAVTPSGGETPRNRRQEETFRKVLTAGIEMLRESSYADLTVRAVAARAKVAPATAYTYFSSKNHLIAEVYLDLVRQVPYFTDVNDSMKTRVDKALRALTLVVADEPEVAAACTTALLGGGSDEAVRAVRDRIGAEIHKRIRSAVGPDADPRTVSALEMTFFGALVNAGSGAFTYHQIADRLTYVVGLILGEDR

Ms5860p
Kd [1]: 290 nM
Kd [2]: 620 nM

B1: LtmA (natural protein)
chain: MSDPAMESTRRRLSARQADTVERLGRAAVELISREGYAGLTVRRVAAEAGVGSATAYTYFSSKEHLVAEVFWRRLSAAPPAVHESPDPATRVVEVLQHIASLVADEPAFAGAVTTALLGKDPDVDALRQRIGADIRQRLVAALGPDVRIDVIEALELLYTGTMVWAGMGYDSYEQVVRRLEKSARLVLS
Kd (HpoR): 7500 ± 800 nM
